Results taken from the MegaScale stability set (Tsuboyama et al. 2023).

B1: HEEH_KT_rd6_0790 (parent)
chain: SEEEEEEWRRAKERGEEIIILGILWKPNDEEAERRIKEALRRV

Variants of: B1
Experiment: folding stability dG (cDNA display proteolysis); higher = more stable
Conditions: PBS, room temperature

Variant	folding stability dG
SEEEEEEWRRAKERGEEIIILGIQWKPNDEEAERRIKEALRRV [L24Q]	1.66 kcal/mol
SEEEEEEWRRAKERGEEIIILGIEWKPNDEEAERRIKEALRRV [L24E]	1.29 kcal/mol
SEEEEEEWRRAKERGEEIIILGIVWKPNDEEAERRIKEALRRV [L24V]	1.79 kcal/mol
SEEEEEEWRRADERGEEIIILGILWKPNDEEAERRIKEALRRV [K12D]	1.06 kcal/mol
SEEEEEEWRRAKERGEEIIILGILWKPPDEEAERRIKEALRRV [N28P]	1.34 kcal/mol
SEEEEEEWRRAKERGEEIIILGILWLPNDEEAERRIKEALRRV [K26L]	1.65 kcal/mol
SEEEEEENRRAKERGEEIIILGILWKPNDEEAERRIKEALRRV [W8N]	0.676 kcal/mol
SEEEEEEWIRAKERGEEIIILGILWKPNDEEAERRIKEALRRV [R9I]	1.94 kcal/mol
SEEEEEEWRRAKERGKEIIILGILWKPNDEEAERRIKEALRRV [E16K]	1.96 kcal/mol
SEEEEEEWRRAKERGAEIIILGILWKPNDEEAERRIKEALRRV [E16A]	1.7 kcal/mol
SEEEEEEWRRAKERGEEIIILGILWKPNDEEAERRITEALRRV [K37T]	2.4 kcal/mol
SEEEEEEWRRAKERGEKIIILGILWKPNDEEAERRIKEALRRV [E17K]	1.74 kcal/mol
REEEEEEWRRAKERGEEIIILGILWKPNDEEAERRIKEALRRV [S1R]	2.18 kcal/mol
KEEEEEEWRRAKERGEEIIILGILWKPNDEEAERRIKEALRRV [S1K]	2.1 kcal/mol
SEEEEEEWRRAKERVEEIIILGILWKPNDEEAERRIKEALRRV [G15V]	1.32 kcal/mol
SEEEEEEWRRAKERPEEIIILGILWKPNDEEAERRIKEALRRV [G15P]	1.03 kcal/mol
SEEEEEEWRRAKERSEEIIILGILWKPNDEEAERRIKEALRRV [G15S]	1.61 kcal/mol
SEEEEEEWRRAKERMEEIIILGILWKPNDEEAERRIKEALRRV [G15M]	1.66 kcal/mol
SEEEGEEWRRAKERGEEIIILGILWKPNDEEAERRIKEALRRV [E5G]	1.41 kcal/mol
SEEEWEEWRRAKERGEEIIILGILWKPNDEEAERRIKEALRRV [E5W]	2.42 kcal/mol

Variant	folding stability dG
SEEEEEEWRRAKSRGEEIIILGILWKPNDEEAERRIKEALRRV [E13S]	2.1 kcal/mol
SEEEEEEWRRAKPRGEEIIILGILWKPNDEEAERRIKEALRRV [E13P]	0.785 kcal/mol
SEEEEEEWRRAKERGEEIIILGILWKPNDEEAERHIKEALRRV [R35H]	1.61 kcal/mol
SNEEEEEWRRAKERGEEIIILGILWKPNDEEAERRIKEALRRV [E2N]	2.27 kcal/mol
SEEEEEEWRRHKERGEEIIILGILWKPNDEEAERRIKEALRRV [A11H]	1.6 kcal/mol
SEEEEEEWRRKKERGEEIIILGILWKPNDEEAERRIKEALRRV [A11K]	1.37 kcal/mol
SEEEEEEWRREKERGEEIIILGILWKPNDEEAERRIKEALRRV [A11E]	1.05 kcal/mol
SEEEEEEWRRAKERGEEIIILGILWKPNDEEAERRIKEALRRM [V43M]	2.48 kcal/mol
SEEEEEEWRRAKERGEEIIILGILWKPNDEEAERREKEALRRV [I36E]	0.641 kcal/mol
SEEEEEEWRRAKERGEEIIILGILWKPNDEEAERRQKEALRRV [I36Q]	0.909 kcal/mol
SEEEEEEWRRAKERGEEIIILGILWKPNDEEAERRYKEALRRV [I36Y]	1.02 kcal/mol
SEEEEEEWRRAKERGEEIIILGILWKPNDEEAERRNKEALRRV [I36N]	0.613 kcal/mol
SEEEEEEWRRAKERGEEIIILGILWKPNEEEAERRIKEALRRV [D29E]	1.06 kcal/mol
SEEEEEEWRRAKEHGEEIIILGILWKPNDEEAERRIKEALRRV [R14H]	1.67 kcal/mol
SEEEEEEWRMAKERGEEIIILGILWKPNDEEAERRIKEALRRV [R10M]	1.86 kcal/mol
SEEEEEEWRRAKERGEEIIILQILWKPNDEEAERRIKEALRRV [G22Q]	1.15 kcal/mol
SEEEEEEWRRAKERGEEIIIYGILWKPNDEEAERRIKEALRRV [L21Y]	1.45 kcal/mol
SEEEEVEWRRAKERGEEIIILGILWKPNDEEAERRIKEALRRV [E6V]	1.64 kcal/mol
SEEEEQEWRRAKERGEEIIILGILWKPNDEEAERRIKEALRRV [E6Q]	1.72 kcal/mol
SEEEEGEWRRAKERGEEIIILGILWKPNDEEAERRIKEALRRV [E6G]	1.46 kcal/mol

Variant	folding stability dG
SEAEEEEWRRAKERGEEIIILGILWKPNDEEAERRIKEALRRV [E3A]	2.33 kcal/mol
SESEEEEWRRAKERGEEIIILGILWKPNDEEAERRIKEALRRV [E3S]	2.49 kcal/mol
SEEEEEEWRRAKERGEEIIILGILWKPNDEEAERRIKPALRRV [E38P]	1.11 kcal/mol
SEEEEEEWRRAKERGEEIIILGLLWKPNDEEAERRIKEALRRV [I23L]	1.46 kcal/mol
SEEEEEEWRRAKERGEEIIILGALWKPNDEEAERRIKEALRRV [I23A]	0.977 kcal/mol
SEEEEEEWRRAKERGEEIIILGHLWKPNDEEAERRIKEALRRV [I23H]	1.2 kcal/mol
SEEEEEEWRRAKERGEEIIGLGILWKPNDEEAERRIKEALRRV [I20G]	0.748 kcal/mol
SEEEEEEWRRAKERGEEIIWLGILWKPNDEEAERRIKEALRRV [I20W]	1.17 kcal/mol
SEEEEEEWRRAKERGEEIIQLGILWKPNDEEAERRIKEALRRV [I20Q]	0.945 kcal/mol
SEEEEEEWRRAKERGEEIIILGILWKPNDEENERRIKEALRRV [A32N]	1.02 kcal/mol
SEEEEEEWRRAKERGEEIIILGILWKPNDEEMERRIKEALRRV [A32M]	1.26 kcal/mol
SEEEEEEWRRAKERGEEIIILGILWKPNDEEAERRIKEAMRRV [L40M]	1.76 kcal/mol
SEEEEEEWRRAKERGEEIIILGILWKPNDEEAERRIKEASRRV [L40S]	0.788 kcal/mol
SEEEEEEWRRAKERGEEIIILGILWKPNDEEAERRIKEAYRRV [L40Y]	1.1 kcal/mol
SEEEEEEWRRAKERGEEIIILGILWKWNDEEAERRIKEALRRV [P27W]	1.42 kcal/mol
SEEEEEEWRRAKERGEEIIILGILWKCNDEEAERRIKEALRRV [P27C]	2.1 kcal/mol
SEEEEEEWRRAKERGEESIILGILWKPNDEEAERRIKEALRRV [I18S]	1.17 kcal/mol
SEEEEEEWRRAKERGEEHIILGILWKPNDEEAERRIKEALRRV [I18H]	1.29 kcal/mol
SEEEEEEWRRAKERGEEIIILGILWKPNDEEAERRIKEALPRV [R41P]	0.888 kcal/mol
